# Measured values from the supplement of paper PMC11246515.
# ± gives the standard deviation of the averaged measurements.
# Assay: total protein half-life in vivo (active degradation + dilution); higher = more stable protein
# [1] = E. coli NCM3722 delta-clpP delta-lon delta-hslV, growth: N-lim chemostat, doubling time 6 h
# [2] = E. coli NCM3722 delta-hslV, growth: N-lim chemostat, doubling time 6 h
# [3] = E. coli NCM3722 delta-lon, growth: N-lim chemostat, doubling time 6 h
# [4] = E. coli NCM3722 delta-smpB, growth: N-lim chemostat, doubling time 6 h
# [5] = wild type E. coli NCM3722, growth: C-lim chemostat, doubling time 3 h
# [6] = wild type E. coli NCM3722, growth: C-lim chemostat, doubling time 6 h
# [7] = wild type E. coli NCM3722, growth: C-lim chemostat, doubling time 12 h
# [8] = wild type E. coli NCM3722, growth: N-lim chemostat, doubling time 6 h
# [9] = wild type E. coli NCM3722, growth: N-lim chemostat, doubling time 12 h
# [10] = wild type E. coli NCM3722, growth: P-lim chemostat, doubling time 6 h
# [11] = wild type E. coli NCM3722, growth: P-lim chemostat, doubling time 12 h
# [12] = E. coli NCM3722 delta-clpP, growth: N-lim chemostat, doubling time 6 h
Sequence,total protein half-life in vivo [1] [h],total protein half-life in vivo [2] [h],total protein half-life in vivo [3] [h],total protein half-life in vivo [4] [h],total protein half-life in vivo [5] [h],total protein half-life in vivo [6] [h],total protein half-life in vivo [7] [h],total protein half-life in vivo [8] [h],total protein half-life in vivo [9] [h],total protein half-life in vivo [10] [h],total protein half-life in vivo [11] [h],total protein half-life in vivo [12] [h]
MSFATISVIGLGYIGLPTAAAFASRQKQVIGVDINQHAVDTINRGEIHIVEPDLASVVKTAVEGGFLRASTTPVEADAWLIAVPTPFKGDHEPDMTYVESAARSIAPVLKKGALVILESTSPVGSTEKMAEWLAEMRPDLTFPQQVGEQADVNIAYCPERVLPGQVMVELIKNDRVIGGMTPVCSARASELYKIFLEGECVVTNSRTAEMCKLTENSFRDVNIAFANELSLICADQGINVWELIRLANRHPRVNILQPGPGVGGHCIAVDPWFIVAQNPQQARLIRTAREVNDHKPFWVIDQVKAAVADCLAATDKRASELKIACFGLAFKPNIDDLRESPAMEIAELIAQWHSGETLVVEPNIHQLPKKLTGLCTLAQLDEALATADVLVMLVDHSQFKVINGDNVHQQYVVDAKGVWR,5.3 ± 0.14,5.1 ± 0.76,4.6415 ± 0.0014,4.11 ± 0.081,2.91 ± 0.71,7.21 ± 1.1,9.93 ± 3,5 ± 0.43,8.104 ± 0.048,5.77 ± 0.07,12.5 ± 1.5,–
MSFDPTGYTLAHEHLHIDLSGFKNNVDCRLDQYAFICQEMNDLMTRGVRNVIEMTNRYMGRNAQFMLDVMRETGINVVACTGYYQDAFFPEHVATRSVQELAQEMVDEIEQGIDGTELKAGIIAEIGTSEGKITPLEEKVFIAAALAHNQTGRPISTHTSFSTMGLEQLALLQAHGVDLSRVTVGHCDLKDNLDNILKMIDLGAYVQFDTIGKNSYYPDEKRIAMLHALRDRGLLNRVMLSMDITRRSHLKANGGYGYDYLLTTFIPQLRQSGFSQADVDVMLRENPSQFFQ,4.42,–,6.12,3.08 ± 0.51,–,–,9.94,4.97,–,–,15.1,–
MSFLLPIQLFKILADETRLGIVLLLSELGELCVCDLCTALDQSQPKISRHLALLRESGLLLDRKQGKWVHYRLSPHIPAWAAKIIDEAWRCEQEKVQAIVRNLARQNCSGDSKNICS,6.03,–,5.43,5.01 ± 0.46,2.68,–,–,4.89,9.59,5.5,9.37,5.66
MSFNTIIDWNSCTAEQQRQLLMRPAISASESITRTVNDILDNVKARGDEALREYSAKFDKTTVTALKVSAEEIAAASERLSDELKQAMAVAVKNIETFHTAQKLPPVDVETQPGVRCQQVTRPVASVGLYIPGGSAPLFSTVLMLATPASIAGCKKVVLCSPPPIADEILYAAQLCGVQDVFNVGGAQAIAALAFGTESVPKVDKIFGPGNAFVTEAKRQVSQRLDGAAIDMPAGPSEVLVIADSGATPDFVASDLLSQAEHGPDSQVILLTPAADMARRVAEAVERQLAELPRAETARQALNASRLIVTKDLAQCVEISNQYGPEHLIIQTRNARELVDSITSAGSVFLGDWSPESAGDYASGTNHVLPTYGYTATCSSLGLADFQKRMTVQELSKEGFSALASTIETLAAAERLTAHKNAVTLRVNALKEQA,4.6 ± 0.29,3.96 ± 0.073,4.89 ± 0.47,4.3 ± 0.25,3.3 ± 0.18,5.97 ± 0.23,10.8 ± 1.1,4.23 ± 0.25,6.67 ± 0.38,5.595 ± 0.053,11.9 ± 0.35,4.43 ± 0.94
MSFSCPLCHQPLSREKNSYICPQRHQFDMAKEGYVNLLPVQHKRSRDPGDSAEMMQARRAFLDAGHYQPLRDAIVAQLRERLDDKATAVLDIGCGEGYYTHAFADALPEITTFGLDVSKVAIKAAAKRYPQVTFCVASSHRLPFSDTSMDAIIRIYAPCKAEELARVVKPGGWVITATPGPRHLMELKGLIYNEVHLHAPHAEQLEGFTLQQSAELCYPMRLRGDEAVALLQMTPFAWRAKPEVWQTLAAKEVFDCQTDFNIHLWQRSY,6.07 ± 0.81,4.97,4.9 ± 0.089,4.28 ± 0.53,2.57,5.6,10.8 ± 0.77,5.34 ± 0.44,9.24 ± 0.73,5.78 ± 0.22,13.5 ± 2.7,4.95 ± 0.29
MSFSVDVLANIAIELQRGIGHQDRFQRLITTLRQVLECDASALLRYDSRQFIPLAIDGLAKDVLGRRFALEGHPRLEAIARAGDVVRFPADSELPDPYDGLIPGQESLKVHACVGLPLFAGQNLIGALTLDGMQPDQFDVFSDEELRLIAALAAGALSNALLIEQLESQNMLPGDATPFEAVKQTQMIGLSPGMTQLKKEIEIVAASDLNVLISGETGTGKELVAKAIHEASPRAVNPLVYLNCAALPESVAESELFGHVKGAFTGAISNRSGKFEMADNGTLFLDEIGELSLALQAKLLRVLQYGDIQRVGDDRCLRVDVRVLAATNRDLREEVLAGRFRADLFHRLSVFPLSVPPLRERGDDVILLAGYFCEQCRLRQGLSRVVLSAGARNLLQHYSFPGNVRELEHAIHRAVVLARATRSGDEVILEAQHFAFPEVTLPTPEVAAVPVVKQNLREATEAFQRETIRQALAQNHHNWAACARMLETDVANLHRLAKRLGLKD,–,–,4.32,3.19 ± 0.46,2.33,–,7.42 ± 0.3,3.76,5.2 ± 0.5,–,7.35 ± 0.38,–
MSFTRRKFVLGMGTVIFFTGSASSLLANTRQEKEVRYAMIHDESRCNGCNICARACRKTNHVPAQGSRLSIAHIPVTDNDNETQYHFFRQSCQHCEDAPCIDVCPTGASWRDEQGIVRVEKSQCIGCSYCIGACPYQVRYLNPVTKVADKCDFCAESRLAKGFPPICVSACPEHALIFGREDSPEIQAWLQQNKYYQYQLPGAGKPHLYRRFGQHLIKKENV,4.71 ± 0.073,–,–,–,–,–,–,–,–,–,15.8,–
MSFVVIIPARYASTRLPGKPLVDINGKPMIVHVLERARESGAERIIVATDHEDVARAVEAAGGEVCMTRADHQSGTERLAEVVEKCAFSDDTVIVNVQGDEPMIPATIIRQVADNLAQRQVGMATLAVPIHNAEEAFNPNAVKVVLDAEGYALYFSRATIPWDRDRFAEGLETVGDNFLRHLGIYGYRAGFIRRYVNWQPSPLEHIEMLEQLRVLWYGEKIHVAVAQEVPGTGVDTPEDLERVRAEMR,4.88 ± 0.51,4.68 ± 0.45,4.949 ± 0.04,4.68 ± 0.18,2.84 ± 0.45,6.6 ± 0.59,10.8 ± 0.44,4.72 ± 0.32,7.79 ± 0.56,5.81 ± 0.29,12.6 ± 0.66,4.7 ± 0.29
